Test results reported in patent US20080227954A1 (ZEALAND PHARMA A S, published 2008).
Where no end group is shown, it is not given here.

B1: H-K6-PTH(1-34)-OH (Lys6-PTH(1-34)(Human)-OH) (peptide)
peptide: H-KKKKKKSVSEIQLMHNLGKHLNSMERVEWLRKKLQDVHNF-OH
B2: Leu-Enkephalin-(Lys)6-OH (H-Tyr-Gly-Gly-Phe-Leu-Lys6-OH) (peptide)
peptide: H-YGGFLKKKKKK-OH
notes: also called H-Leu-enkephalin-Lys6
B3: Leu-Enkephalin-(Lys-Glu)3-OH (peptide)
peptide: YGGFLKEKEKE-OH
B4: H-hPTH(1-34)-K6-OH (PTH(1-34)(Human)-Lys6-OH) (peptide)
peptide: H-SVSEIQLMHNLGKHLNSMERVEWLRKKLQDVHNFKKKKKK-OH
B5: hPTH (1-34) (PTH(1-34)(Human)-OH) (peptide)
peptide: SVSEIQLMHNLGKHLNSMERVEWLRKKLQDVHNF-OH
B6: Leu-Enkephalin-(Glu)6-OH (H-Tyr-Gly-Gly-Phe-Leu-Glu6-OH) (peptide)
peptide: H-YGGFLEEEEEE-OH

Tests used:
[1] = biological target: PTH (1-34)-antibody of the enzyme immunoassay EIAS(h)-6101 (Peninsula Laboratories, Inc.); test: competitive EIA against biotinylated peptide for the PTH(1-34) antibody
[2] = biological target: T1, µ opioid receptor (bovine caudate nucleus synaptic membrane fraction) (bovine, UniProt P79350 1-401); test: displacement of 1 nM [3H]DAMGO, bovine caudate synaptic membranes; column Time 18 hours
T1 construct: whole, on cells; Native receptor in brain membranes, not on intact cells; The tissue may hold other opioid receptors; also called µ-receptor; µ opioid receptors
T1 sequence (P79350 whole entry): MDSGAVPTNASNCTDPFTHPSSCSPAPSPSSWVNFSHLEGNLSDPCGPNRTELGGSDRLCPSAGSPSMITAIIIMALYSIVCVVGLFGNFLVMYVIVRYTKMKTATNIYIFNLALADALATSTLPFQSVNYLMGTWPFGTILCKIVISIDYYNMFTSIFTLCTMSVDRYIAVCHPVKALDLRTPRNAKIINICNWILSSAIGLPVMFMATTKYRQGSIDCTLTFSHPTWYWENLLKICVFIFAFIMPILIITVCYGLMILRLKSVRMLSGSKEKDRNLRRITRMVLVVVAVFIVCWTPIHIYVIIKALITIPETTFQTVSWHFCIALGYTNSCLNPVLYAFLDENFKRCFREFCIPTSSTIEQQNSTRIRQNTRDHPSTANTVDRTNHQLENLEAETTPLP

[3] = biological target: T1, µ opioid receptor (bovine caudate …); test: displacement of 1 nM [3H]DAMGO, bovine caudate synaptic membranes; column Time 0 hours; mean ± SD
Procedure: (§1) Affinities for […] opioid receptor were determined using [³H](D-Ala²,N-Me-Phe⁴, Gly-ol⁵) Enkephalin (DAMGO) (1 nM) as described by Christensen, 1993, Pharmacol. Toxicol. 73:344-345. In short: Bovine brains were placed on ice within minutes after the slaughter. The caudate nuclei were dissected and homogenized in 20 vol. of 0.32 M sucrose. The homogenate was centrifuged at 2000 g for 10 min. The pellet was re-suspended in 10 vol. of 50 mM Tris-HCl buffer 7.4 and stored at −20° C. until use. The synaptic membrane fraction was incubated with 1 nM of [3H]DAMGO in the presence of various concentrations of test ligand. Non-specifically bound [3H]-DAMGO was established using 1 μM naloxone. Following 15 min. incubation at 36° C. samples were filtered through Whatman GF/C filters and washed with buffer. Radioactivity was determined using conventional techniques.

[4] = biological target: T1, µ opioid receptor (bovine caudate …); test: displacement of 1 nM [3H]DAMGO, bovine caudate synaptic membranes; column Time 0 hours
Procedure: as §1

Row | Binder | Relative recovery % [1] [%] | IC50 [2] [µM] | IC50 [3] [µM] | IC50 [4] [µM]
1 | B1 | 79.1 | – | – | –
2 | B2 | – | 0.032 | 0.017 | –
3 | B3 | – | 0.9 | 0.45 | –
4 | B4 | 61.8 | – | – | –
5 | B5 | 90.8 | – | – | –
6 | B6 | – | 5 | – | 10
